We go through 63 sequences from the supplement of paper PMC9112550, “Optimization of the antimicrobial peptide Bac7 by deep mutational scanning” (BMC Biology, 2022).
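Further: peptides expressed intracellularly from a pBAD plasmid library in pooled LB shake-flask culture, induced with 0.3% L-arabinose, DNA abundance read by NGS, three biological replicates, DESeq2 with apeglm shrinkage.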

The subject of the data set is Escherichia coli TOP10. Briefly: shrunken log2 fold change of peptide-encoding DNA abundance (4.5 h post-induction vs induction); higher = less antimicrobial activity (less host growth inhibition). As to conditions: time post-induction: 4.5 h; library: site-saturation at positions 5, 18, 19, 20.
RRIRRRPPRLPRPRPRPTKKPRP: the “shrunken log2 fold change” value turned out to be 0.253.

With RRIRGRPPRLPRPRPRPAVQPRP, the “shrunken log2 fold change” value amounted to 0.797.

For the sequence RRIRYRPPRLPRPRPRPHTFPRP, the “shrunken log2 fold change” value was -0.14. Under RRIRLRPPRLPRPRPRPVAKPRP stands 0.123; under RRIRYRPPRLPRPRPRPNERPRP, -0.0497. With RRIRYRPPRLPRPRPRPFDPPRP, the “shrunken log2 fold change” value is -0.199. The value for RRIRERPPRLPRPRPRPVKMPRP was -0.0989; that for RRIRQRPPRLPRPRPRPEKEPRP was -0.0081; that for RRIRMRPPRLPRPRPRPWCGPRP was 0.134. As to RRIRTRPPRLPRPRPRPWFWPRP, the “shrunken log2 fold change” value came to 0.0569. As to RRIRYRPPRLPRPRPRPMIDPRP, the “shrunken log2 fold change” value was -0.00999. Under RRIRERPPRLPRPRPRPWSGPRP stands -0.48; under RRIRNRPPRLPRPRPRPFNLPRP, -0.207.

Take RRIRHRPPRLPRPRPRPSSPPRP: the “shrunken log2 fold change” value is -0.316. In the case of RRIRDRPPRLPRPRPRPCDNPRP, the “shrunken log2 fold change” value is -0.283. Under RRIRCRPPRLPRPRPRPQQLPRP stands -0.054. As for RRIRPRPPRLPRPRPRPNKTPRP, the “shrunken log2 fold change” value is -0.0733. The value for RRIRGRPPRLPRPRPRPQMTPRP was 2.33. RRIRCRPPRLPRPRPRPMPCPRP: the “shrunken log2 fold change” value is -0.688.

Regarding RRIRRRPPRLPRPRPRPYRNPRP, the “shrunken log2 fold change” value was determined as 0.0114.

Consider RRIRMRPPRLPRPRPRPSYAPRP, for which the “shrunken log2 fold change” value was -0.0187. For the sequence RRIRGRPPRLPRPRPRPYLCPRP, the “shrunken log2 fold change” value came out at 0.0395.

As to RRIRYRPPRLPRPRPRPGQGPRP, the “shrunken log2 fold change” value was -0.0311. Turning to RRIRGRPPRLPRPRPRPDEYPRP, the “shrunken log2 fold change” value is 0.168. The value for RRIRVRPPRLPRPRPRPWPPPRP was 0.46; that for RRIRARPPRLPRPRPRPHTCPRP was -0.29; that for RRIRQRPPRLPRPRPRPCAVPRP was 0.0208. In the case of RRIRPRPPRLPRPRPRPQIEPRP, the “shrunken log2 fold change” value is -0.0699. The value for RRIRMRPPRLPRPRPRPDITPRP was 2.12; that for RRIRRRPPRLPRPRPRPSEMPRP was 0.0772.

Turning to RRIRQRPPRLPRPRPRPTVSPRP, the “shrunken log2 fold change” value is -0.14.

On to RRIRTRPPRLPRPRPRPEVEPRP, for which the “shrunken log2 fold change” value was determined as 0.0992. For the sequence RRIRFRPPRLPRPRPRPKGDPRP, the “shrunken log2 fold change” value was 0.054.

Take RRIRVRPPRLPRPRPRPSKAPRP: the “shrunken log2 fold change” value was 0.0587.

Regarding RRIRKRPPRLPRPRPRPTIDPRP, the “shrunken log2 fold change” value came to 0.128.

As to RRIRNRPPRLPRPRPRPNFCPRP, the “shrunken log2 fold change” value was -0.0258. The value for RRIRQRPPRLPRPRPRPGARPRP was 0.451.

As for RRIRRRPPRLPRPRPRPSYWPRP, the “shrunken log2 fold change” value was -0.0367. With RRIRTRPPRLPRPRPRPCKFPRP, the “shrunken log2 fold change” value was -0.298.

Regarding RRIRERPPRLPRPRPRPWEVPRP, the “shrunken log2 fold change” value is -0.17. For RRIRIRPPRLPRPRPRPVPNPRP, the “shrunken log2 fold change” value was -0.00284. With RRIRNRPPRLPRPRPRPKKFPRP, the “shrunken log2 fold change” value is -0.0756. The value for RRIRTRPPRLPRPRPRPHSFPRP was -0.0168; that for RRIRNRPPRLPRPRPRPKIIPRP was -0.118. As for RRIRPRPPRLPRPRPRPISLPRP, the “shrunken log2 fold change” value is -0.427. For the sequence RRIRMRPPRLPRPRPRPRMHPRP, the “shrunken log2 fold change” value was determined as 0.118. The value for RRIRQRPPRLPRPRPRPGTPPRP was 0.000485; that for RRIRFRPPRLPRPRPRPINSPRP was -0.428; that for RRIRMRPPRLPRPRPRPLFDPRP was 0.201. On to RRIRWRPPRLPRPRPRPELVPRP, for which the “shrunken log2 fold change” value turned out to be 0.605. In the case of RRIRHRPPRLPRPRPRPNIGPRP, the “shrunken log2 fold change” value was -0.431.

In the case of RRIRARPPRLPRPRPRPEHNPRP, the “shrunken log2 fold change” value is -0.0925. Under RRIRTRPPRLPRPRPRPLLMPRP stands -0.278; under RRIRFRPPRLPRPRPRPGAPPRP, 0.54; under RRIRARPPRLPRPRPRPRVAPRP, 0.46. As for RRIRLRPPRLPRPRPRPPGMPRP, the “shrunken log2 fold change” value stood at 0.197. In the case of RRIRWRPPRLPRPRPRPVLEPRP, the “shrunken log2 fold change” value turned out to be 0.227. Take RRIRSRPPRLPRPRPRPFRMPRP: the “shrunken log2 fold change” value is -0.646. The value for RRIRARPPRLPRPRPRPWNAPRP was -0.124; that for RRIRQRPPRLPRPRPRPSMHPRP was -0.0647. The value for RRIRCRPPRLPRPRPRPPPTPRP was 1.48; that for RRIRDRPPRLPRPRPRPNEYPRP was 0.0406; that for RRIRWRPPRLPRPRPRPDRHPRP was -0.157.
